From FireProtDB (doi:10.1038/12277)

Settings: Escherichia coli (strain K12), pH 5.5, CD, Potassium phosphate 2 mM, KF 5 mM, reversible: yes, whole UniProt chain shown

B1: Ribonuclease HI wild type, P0A7Y4 (protein)
chain: MLKQVEIFTDGSCLGNPGPGGYGAILRYRGREKTFSAGYTRTTNNRMELMAAIVALEALKEHCEVILSTDSQYVRQGITQWIHNWKKRGWKTADKKPVKNVDLWQRLDAALGQHQIKWEWVKGHAGHPENERCDELARAAAMNPTLEDTGYQVEV
25 °C, Urea
  denaturant m value: 2.1 kcal/mol/M
  unfolding free energy: 9.7 kcal/mol
Thermal
  Tm: 47.8 °C
